Measurements: the supplement of paper PMC12764529
± gives the half width of the 95% confidence interval.

Assays:
[1] = folding stability dG unfold from chymotrypsin proteolysis; higher = more stable
Procedure, shortened: (§1)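 Unfolding free energy was derived, per protease or combined, against a sequence-predicted unfolded-state K50 and a shared folded-state K50, starting from K50 inferred by Bayesian fitting of sequencing counts. Digestion with trypsin and chymotrypsin was carried out on designed mini-proteins under 80 residues without cysteine in a PA-tagged cDNA display construct. Only designs with AlphaFold2 dimer inter-PAE above 15 were kept.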

[2] = folding stability dG unfold from trypsin proteolysis; higher = more stable
Procedure, shortened: as §1

[3] = folding stability dG unfold (combined trypsin and chymotrypsin); higher = more stable
Procedure, shortened: as §1

Sequence | folding stability dG unfold [1] | folding stability dG unfold [2] | folding stability dG unfold [3]
SAGGMKVDPKTNITTIEFPSSNLPELKEAIEKTGEKPVVVILKDPNSDREVRITLTKEEALKYLEKKSAGGS [r16_797_JUSTAS] | 2.97 ± 0.418 kJ/mol | 0.875 ± 0.586 kJ/mol | 2.36 ± 0.753 kJ/mol
SAGGMKVEKNTIYIEVEKDMSAEEVAKKIAEELKKKGLKVEIKVEKKEDGTKVIRIKVDGKEIEIYASAGGS [r16_771_TrROS_Hall] | 4.72 ± 0.753 kJ/mol | 7.71 ± 0.393 kJ/mol | 6.3 ± 1.26 kJ/mol
SAGGMKVEVEKDPIKDGTTITVETGLDPEEVRAFLEELLGPPLEDVTFETAPDGTLVVTARVPPDVGSAGGS [r16_605_JUSTAS] | 2.36 ± 0.201 kJ/mol | 2.62 ± 0.226 kJ/mol | 3.42 ± 0.502 kJ/mol
SAGGMKVIEVEMTADEVKALVKELAEKDDLKIYIYVDGKKIELTVDEIKKIPPENQKVTIIIEKKKESAGGS [r16_628_TrROS_Hall] | 13 ± 0.586 kJ/mol | 12.3 ± 0.92 kJ/mol | 12.8 ± 1.17 kJ/mol
SAGGMKVRVRLPDGTEVELEVTEVTVSTDPSTGTPVYTITLANGEKLTVTVPVDKPVRPGETVTVTPESAGG [r13_390_JUSTAS] | 15.5 ± 0.222 kJ/mol | 15.6 ± 0.234 kJ/mol | 16 ± 0.234 kJ/mol
SAGGMKVTEEPDATIVEVPLPDRKLTLTITRDGPGVTVTVTEDGEVLKTIPTDGPAEEAIAAAIAALSAGGS [r8_276_JUSTAS] | 5.99 ± 0.247 kJ/mol | 4.37 ± 0.0669 kJ/mol | 5.41 ± 0.293 kJ/mol
SAGGMKVTITVTDPEAFRAAVEALPEVPPEQVSTSPLPGNSYTATFPSEKAVELLKAAGVPITEIAASAGGS [r16_381_JUSTAS] | 2.64 ± 0.31 kJ/mol | 1.58 ± 0.092 kJ/mol | 2.38 ± 0.209 kJ/mol
SAGGMKVTVTEDGSSSKVTITIKDPKTGIEKTYTATATVLPDGTVVYTITYPDGSKKTIPSSELELSSAGGS [r16_154_JUSTAS] | 16.8 ± 0.213 kJ/mol | 8.85 ± 0.364 kJ/mol | 15.1 ± 0.46 kJ/mol
SAGGMKVTVYPDGTVSVEIEPGQTLTVSLGDKEYTVTAEYPSITITTTPVPVPPPAVPPENVDPSLVSAGGS [r16_600_JUSTAS] | 4.12 ± 0.213 kJ/mol | 6.44 ± 0.46 kJ/mol | 5.13 ± 0.628 kJ/mol
SAGGMKYLVTITITDPDTGQERVIEVEFPDMTPEEIKEAAEELAEEIASEQGLNLKVEVEVTPIPLLSAGGS [r8_185_JUSTAS] | 14 ± 0.322 kJ/mol | 16.5 ± 0.46 kJ/mol | 14.9 ± 0.285 kJ/mol
SAGGMLEVTEEPLELGDRPVTRTTITLPDGTVVTVTTEAGTGAMTVTYPDGTTKTVTSEEDALAALLSAGGS [r8_168_JUSTAS] | 4.98 ± 0.213 kJ/mol | 11.1 ± 0.46 kJ/mol | 8.45 ± 0.393 kJ/mol
SAGGMLGFRAETDLFVEPIPPGAEVEPLRIGDRLLLIVRHPDGSYTINLFTPVRPLPVPPAFSTANAASAGG [r13_804_TrMRF] | 6.86 ± 0.289 kJ/mol | 6.69 ± 0.151 kJ/mol | 7.05 ± 0.213 kJ/mol
SAGGMLILIKVKNKKYEIEINGKKIEVEEKDGYLIIKVSPEALEALKKIPNLENIEEIKIFPEEELKSAGGS [r8_493_TrROS_Hall] | 10.7 ± 0.138 kJ/mol | 8.67 ± 0.146 kJ/mol | 9.73 ± 0.372 kJ/mol
SAGGMLLVRIRVKLSPEQIKALEEAGFEVVEERDGEVVVRLEVSPEQLEKLKALFPDAEIEVVELPPESAGG [r13_261_TrROS_Hall] | 20.8 ± 0.418 kJ/mol | 22.8 ± 2.05 kJ/mol | 22 ± 1.21 kJ/mol
SAGGMLPGEPEVELVLEIEIDVPPGEISAEELERLLRELFPGAEVVDVRVEEEGGKLRIEVVIRLPPSAGGS [r8_202_TrROS_Hall] | 11.2 ± 0.243 kJ/mol | 14.3 ± 0.586 kJ/mol | 13.3 ± 0.544 kJ/mol
SAGGMLPLVVKVKTPDGEEYTFVVAYNPETSELWLPLPKEPTWRNVPLTEASSIPEFQIVEARPLALESAGG [r13_994_TrMRF] | 3.95 ± 0.268 kJ/mol | 1.46 ± 0.234 kJ/mol | 3.18 ± 0.364 kJ/mol
SAGGMLRIRIDGREIEIGMTVEEILAAIEKELGREISPELREALRKAKTPEEIVEALRKLGLKIEIESAGGS [r16_601_TrROS_Hall] | 21.6 ± 0.36 kJ/mol | 15.3 ± 0.335 kJ/mol | 20.1 ± 0.364 kJ/mol
SAGGMLVRVTLPSGETVELPVTSLDAAARRLREELGLPAGARLRVEVYDPVTGEVTEYELVIPVPEPVSAGG [r13_145_TrMRF] | 18.1 ± 0.259 kJ/mol | 20.6 ± 0.753 kJ/mol | 19.6 ± 0.418 kJ/mol
SAGGMMKLELEIEKEDGKKYKIEVEYNKEEPVLKIKIYDKNGKKIKEIEIKAKSLEEALEAAKKLLKSAGGS [r16_158_TrROS_Hall] | 16.7 ± 0.837 kJ/mol | 13.8 ± 0.586 kJ/mol | 15.4 ± 0.92 kJ/mol
SAGGMMTVRIVIEKDGKKITITAKVTKIEFDEETGKLTITFEDGSKKEIDLDKLKIKKIEVEPAPEEESAGG [r13_636_TrROS_Hall] | 12.8 ± 0.795 kJ/mol | 6.95 ± 0.326 kJ/mol | 11.8 ± 0.879 kJ/mol
SAGGMMYLIKVDTKEELKELAEAPGAKIVEEKEVNGKLYLLIEFPPGVTKIKIDVETRKIVEIEKLPSAGGS [r8_251_TrROS_Hall] | 6.61 ± 0.628 kJ/mol | 3.18 ± 0.544 kJ/mol | 5.73 ± 1.09 kJ/mol

Sequence | folding stability dG unfold [1] | folding stability dG unfold [2] | folding stability dG unfold [3]
SAGGMNMKPIKKETFTLPDENGNEVKIEIYKLEDGSYIIKITYPSGKTETFIVPDEETAKNLKIEIKPSAGG [r13_109_TrMRF] | 12.2 ± 0.192 kJ/mol | 6.96 ± 0.502 kJ/mol | 11 ± 0.753 kJ/mol
SAGGMNTESSFPITLPDGRKVLKNVKTDPETGEITVTVTSIGDPNVKTTEKVDPENPEKVLETVTKPESAGG [r13_400_JUSTAS] | 0.862 ± 0.46 kJ/mol | -1.48 ± 0.155 kJ/mol | 0.193 ± 0.628 kJ/mol
SAGGMNVSYLFSKSVPKEEIEAYLKKLDPNKKYKFEELEPEEIEKLPESIEVIEKPVDETLRLVLVEESAGG [r13_649_JUSTAS] | 3.2 ± 0.46 kJ/mol | -1.35 ± 0.385 kJ/mol | 1.98 ± 0.502 kJ/mol
SAGGMNVTVTVELVPLPDEPVLFVTVETEDGSVSVITFDPATGTATVLKVSPTKTEITTVPAEDILLASAGG [r13_328_TrMRF] | 11.7 ± 0.46 kJ/mol | 7.55 ± 0.544 kJ/mol | 10.2 ± 0.837 kJ/mol
SAGGMPADTPVIPIEILDIRVEPDPESDSYTAEVKVRFPDGTEKTFTIKLPKDATLEDVIEKAKELAASAGG [r13_578_TrMRF] | 17.1 ± 0.46 kJ/mol | 16 ± 0.837 kJ/mol | 17.2 ± 0.753 kJ/mol
SAGGMPDITEVELLDVEYDPETGTYRFRVKVKLKDGTEREVEIPFVDEDGDFGIEEILKAAEELVEESAGGS [r16_221_TrMRF] | 16.7 ± 0.188 kJ/mol | 11.3 ± 0.586 kJ/mol | 15.3 ± 0.753 kJ/mol
SAGGMPEDMKLKFKVVDFRPHPHPDGYQIVELFYNDKLLRRLRVPPGLAVKLAKELPEDVALVTLPESAGGS [r8_41_TrMRF] | 6.4 ± 0.586 kJ/mol | 3.46 ± 0.36 kJ/mol | 5.35 ± 0.377 kJ/mol
SAGGMPENMKWRPIPFTQKNPDGLTLKMKIWVFPDPYILIEHEVEDNGKPVAEIPILLPADDPEDLKSAGGS [r16_714_TrROS] | 2.15 ± 1.76 kJ/mol | -2.76 ± 2.51 kJ/mol | 1.63 ± 0.837 kJ/mol
SAGGMPGVRPVVTVTVLVKFPGPDETKTVTITMRPEELAAGVTPEAAARRVAEALGHDIEILEIERKSAGGS [r16_554_JUSTAS] | 7.78 ± 0.13 kJ/mol | 5.86 ± 0.167 kJ/mol | 6.72 ± 0.368 kJ/mol
SAGGMPIILLEEKKLPNGEPVYRITLLERDPNDGSWRPIEEDELKTKEEAEERAKAIAEKRGVELLKSAGGS [r16_512_JUSTAS] | 5.61 ± 0.151 kJ/mol | 6.55 ± 0.109 kJ/mol | 5.98 ± 0.222 kJ/mol
SAGGMPKTIEVEIVFKRDEEGKIGIDKIKKAAEELAKKFPEVKKVEVDIEEDPETDYVKVKVKVEVESAGGS [r8_258_TrMRF] | 9.78 ± 0.134 kJ/mol | 7.31 ± 0.247 kJ/mol | 8.78 ± 0.586 kJ/mol
SAGGMPLDSPEVQRRLAALKEALAKAEALREAGLEVKVVSIEFDPETREVTIEVEVRPAPPPPPEEPSAGGS [r8_277_TrROS_Hall] | 7.41 ± 0.347 kJ/mol | 7.58 ± 0.418 kJ/mol | 8.03 ± 0.502 kJ/mol
SAGGMPLVELEIVLPKEELEKLEEALRKLGYKVVKIEVVEYDPENDLVRVRIVLEKPMTLEELKKALKSAGG [r13_725_TrROS_Hall] | 19.8 ± 0.753 kJ/mol | 15.6 ± 0.46 kJ/mol | 19.4 ± 2.55 kJ/mol
SAGGMPPENIKEITEVERNPDGMKEITIEMEDPELAKQGNPEQVDQMAEWLQDEFPDRGIPVTIEPGPSAGG [r13_243_TrROS] | -1.82 ± 1.17 kJ/mol | 2.15 ± 0.339 kJ/mol | 0.191 ± 1.17 kJ/mol
SAGGMPPGYRVVLVTKEVETVTFEKKPGNENEYTTTPKIVPREEVVEVTSPEVLAELEAEGYEVTPASAGGS [r8_482_JUSTAS] | -0.643 ± 0.711 kJ/mol | 0.033 ± 0.13 kJ/mol | -0.0932 ± 0.46 kJ/mol
SAGGMPPVKVPVKVTISMKDPKTGKTFTVPVEKVATSEEDLEEIKKEVEELAKELKEKGYKEIEIKIESAGG [r13_360_JUSTAS] | 13.1 ± 0.335 kJ/mol | 8.97 ± 0.255 kJ/mol | 12 ± 0.418 kJ/mol
SAGGMPTTSSSAVKLDGGSDSVTTTTLPDGSRVVYIVSSDGKVYKATVTGGTTTWTEVKTVPPAELSSAGGS [r16_48_JUSTAS] | 10.07 ± 0.0753 kJ/mol | 6.41 ± 0.13 kJ/mol | 8.9 ± 0.213 kJ/mol
SAGGMPVTVEITVDLVLDPRYRPRPVYPPGETWREPERRVLPVTFTATFGDPEDAERAAVELLRALGVSAGG [r13_35_TrMRF] | 7.26 ± 0.134 kJ/mol | 3.62 ± 0.172 kJ/mol | 6.09 ± 0.259 kJ/mol
SAGGMPVTVTLDLSDLTPEEIERLLTEAVEAHPDPAAVTVRVKTDDPALEAAVRAAAEALPAVAVTLESAGG [r13_718_JUSTAS] | 1.1 ± 0.213 kJ/mol | -3.6 ± 2.26 kJ/mol | 0.381 ± 0.879 kJ/mol
SAGGMPVVKVTLRVELPETGETVDVTLYVDPSVPEEYLERLVRRVAEEVARLLRLPPPPVPPRPDELSAGGS [r16_191_TrMRF] | 15.2 ± 0.238 kJ/mol | 13.8 ± 0.502 kJ/mol | 14.7 ± 0.397 kJ/mol
SAGGMPYTLVGEKTESLGEGNTVVTKTYKPPDGTYTVETTTITTDPENGSTSTTSTTTTIPPNTPEALSAGG [r19_173_JUSTAS] | 1.4 ± 1.05 kJ/mol | -4.7 ± 1.42 kJ/mol | -0.418 ± 1.3 kJ/mol
